Biological target: Pol epsilon WT (holoenzyme) (Saccharomyces cerevisiae, UniProt P21951;P24482;P27344;Q04603 1-2222;1-689;1-201;1-196)
Assay: EMSA

Sequence of Pol epsilon WT (holoenzyme) (P21951 whole entry, chain 1 of 4): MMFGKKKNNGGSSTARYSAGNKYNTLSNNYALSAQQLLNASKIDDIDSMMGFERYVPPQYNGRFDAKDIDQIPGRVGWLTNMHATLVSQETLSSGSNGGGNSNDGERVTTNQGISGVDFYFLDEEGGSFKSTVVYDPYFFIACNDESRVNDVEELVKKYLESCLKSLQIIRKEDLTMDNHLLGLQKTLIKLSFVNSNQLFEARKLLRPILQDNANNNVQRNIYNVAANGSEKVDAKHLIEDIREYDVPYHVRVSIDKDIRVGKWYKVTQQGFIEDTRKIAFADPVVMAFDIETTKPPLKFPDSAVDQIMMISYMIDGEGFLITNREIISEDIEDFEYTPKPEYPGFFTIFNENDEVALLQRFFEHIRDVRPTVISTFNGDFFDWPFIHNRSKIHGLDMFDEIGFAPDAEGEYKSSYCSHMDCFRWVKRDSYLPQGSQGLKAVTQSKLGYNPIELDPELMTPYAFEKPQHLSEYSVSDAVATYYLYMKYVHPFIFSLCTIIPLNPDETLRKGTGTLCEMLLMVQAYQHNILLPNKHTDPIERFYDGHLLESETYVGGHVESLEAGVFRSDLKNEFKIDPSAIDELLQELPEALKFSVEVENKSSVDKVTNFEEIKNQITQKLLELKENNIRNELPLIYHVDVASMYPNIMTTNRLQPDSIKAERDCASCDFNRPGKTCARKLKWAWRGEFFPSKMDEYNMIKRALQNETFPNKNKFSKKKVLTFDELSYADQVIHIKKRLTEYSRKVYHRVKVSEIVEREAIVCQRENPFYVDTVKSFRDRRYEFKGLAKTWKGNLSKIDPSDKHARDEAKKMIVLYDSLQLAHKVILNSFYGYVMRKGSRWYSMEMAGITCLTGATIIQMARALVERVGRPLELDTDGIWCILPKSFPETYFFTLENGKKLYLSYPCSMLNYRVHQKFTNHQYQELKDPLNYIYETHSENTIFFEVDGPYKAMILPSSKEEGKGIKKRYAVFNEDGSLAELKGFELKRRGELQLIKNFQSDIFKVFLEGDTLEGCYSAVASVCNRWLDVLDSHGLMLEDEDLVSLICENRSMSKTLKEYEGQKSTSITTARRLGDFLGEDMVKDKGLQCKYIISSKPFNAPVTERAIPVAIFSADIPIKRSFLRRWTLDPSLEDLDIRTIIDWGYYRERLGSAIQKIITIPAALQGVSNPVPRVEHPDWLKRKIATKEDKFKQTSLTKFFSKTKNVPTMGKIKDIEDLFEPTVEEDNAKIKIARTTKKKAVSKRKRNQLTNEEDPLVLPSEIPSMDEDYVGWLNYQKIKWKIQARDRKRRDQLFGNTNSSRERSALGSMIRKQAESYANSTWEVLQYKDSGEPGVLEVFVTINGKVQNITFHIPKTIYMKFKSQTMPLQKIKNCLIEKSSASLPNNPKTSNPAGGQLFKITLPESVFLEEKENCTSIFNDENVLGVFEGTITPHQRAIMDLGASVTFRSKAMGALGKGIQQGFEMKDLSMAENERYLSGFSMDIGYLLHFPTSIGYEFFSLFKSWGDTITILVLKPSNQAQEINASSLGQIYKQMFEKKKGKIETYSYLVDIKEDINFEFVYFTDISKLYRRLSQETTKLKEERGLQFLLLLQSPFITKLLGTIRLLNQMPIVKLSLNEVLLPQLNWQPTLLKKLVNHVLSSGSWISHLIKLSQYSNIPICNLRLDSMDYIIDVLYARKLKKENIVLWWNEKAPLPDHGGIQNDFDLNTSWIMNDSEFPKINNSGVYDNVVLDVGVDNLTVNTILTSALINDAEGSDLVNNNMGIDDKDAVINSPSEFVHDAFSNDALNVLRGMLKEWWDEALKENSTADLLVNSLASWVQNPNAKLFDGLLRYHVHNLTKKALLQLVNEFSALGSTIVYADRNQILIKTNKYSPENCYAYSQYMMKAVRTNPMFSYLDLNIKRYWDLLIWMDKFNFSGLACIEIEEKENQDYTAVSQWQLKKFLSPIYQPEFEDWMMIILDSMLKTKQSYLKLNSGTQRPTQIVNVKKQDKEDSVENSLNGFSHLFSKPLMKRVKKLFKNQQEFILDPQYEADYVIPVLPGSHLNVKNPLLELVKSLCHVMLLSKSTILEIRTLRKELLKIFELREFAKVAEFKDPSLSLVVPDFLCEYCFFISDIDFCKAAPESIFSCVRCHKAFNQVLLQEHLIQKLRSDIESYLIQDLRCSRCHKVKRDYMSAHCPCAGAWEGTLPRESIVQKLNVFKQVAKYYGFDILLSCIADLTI
Sequence of Pol epsilon WT (holoenzyme) (P24482 whole entry, chain 2 of 4): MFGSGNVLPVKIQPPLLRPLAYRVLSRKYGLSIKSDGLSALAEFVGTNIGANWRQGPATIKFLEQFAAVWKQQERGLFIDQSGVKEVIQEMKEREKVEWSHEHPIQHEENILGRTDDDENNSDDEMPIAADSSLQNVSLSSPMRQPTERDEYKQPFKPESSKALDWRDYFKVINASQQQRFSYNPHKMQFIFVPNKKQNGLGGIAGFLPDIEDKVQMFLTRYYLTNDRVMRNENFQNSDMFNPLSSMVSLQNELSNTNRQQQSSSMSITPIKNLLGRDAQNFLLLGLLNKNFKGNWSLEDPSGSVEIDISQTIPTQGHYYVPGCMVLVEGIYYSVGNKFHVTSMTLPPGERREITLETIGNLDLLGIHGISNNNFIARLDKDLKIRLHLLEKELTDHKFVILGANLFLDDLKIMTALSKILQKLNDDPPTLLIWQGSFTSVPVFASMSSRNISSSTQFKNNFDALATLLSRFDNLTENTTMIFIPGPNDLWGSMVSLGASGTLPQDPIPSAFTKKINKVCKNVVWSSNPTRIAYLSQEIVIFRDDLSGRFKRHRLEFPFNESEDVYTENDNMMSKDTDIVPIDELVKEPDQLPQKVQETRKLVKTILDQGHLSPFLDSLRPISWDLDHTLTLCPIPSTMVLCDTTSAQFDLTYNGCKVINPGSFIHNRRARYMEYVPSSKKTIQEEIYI
Sequence of Pol epsilon WT (holoenzyme) (P27344 whole entry, chain 3 of 4): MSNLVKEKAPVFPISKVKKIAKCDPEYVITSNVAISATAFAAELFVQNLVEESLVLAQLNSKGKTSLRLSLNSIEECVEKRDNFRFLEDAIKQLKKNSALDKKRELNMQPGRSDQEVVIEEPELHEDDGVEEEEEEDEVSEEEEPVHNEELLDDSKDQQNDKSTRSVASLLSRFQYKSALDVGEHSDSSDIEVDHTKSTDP
Sequence of Pol epsilon WT (holoenzyme) (Q04603 whole entry, chain 4 of 4): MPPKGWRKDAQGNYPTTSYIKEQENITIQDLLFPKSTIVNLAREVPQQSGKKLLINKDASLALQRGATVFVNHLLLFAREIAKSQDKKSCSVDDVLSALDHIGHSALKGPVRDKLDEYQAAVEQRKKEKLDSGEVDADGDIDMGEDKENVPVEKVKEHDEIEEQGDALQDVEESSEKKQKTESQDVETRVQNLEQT

B1: P50/T80-1 (mixed)
DNA 1: TGGAACTTTGTACGTCCAAAATTGAATGACTTGGCCAACTACACTAAGTT
DNA 2: GGATTACGAAACGAAGCACATTAGCCCTGGAACTTAGTGTAGTTGGCCAAGTCATTCAATTTTGGACGTACAAAGTTCCA
binding result: binds
